# Laboratory results: PMC4422553
# Target: His6-tagged Rev-A IN (reticuloendotheliosis virus strain A integrase) (reticuloendotheliosis virus strain A (Rev-A))
# Sequence (P03360 752-1152 limits assumed): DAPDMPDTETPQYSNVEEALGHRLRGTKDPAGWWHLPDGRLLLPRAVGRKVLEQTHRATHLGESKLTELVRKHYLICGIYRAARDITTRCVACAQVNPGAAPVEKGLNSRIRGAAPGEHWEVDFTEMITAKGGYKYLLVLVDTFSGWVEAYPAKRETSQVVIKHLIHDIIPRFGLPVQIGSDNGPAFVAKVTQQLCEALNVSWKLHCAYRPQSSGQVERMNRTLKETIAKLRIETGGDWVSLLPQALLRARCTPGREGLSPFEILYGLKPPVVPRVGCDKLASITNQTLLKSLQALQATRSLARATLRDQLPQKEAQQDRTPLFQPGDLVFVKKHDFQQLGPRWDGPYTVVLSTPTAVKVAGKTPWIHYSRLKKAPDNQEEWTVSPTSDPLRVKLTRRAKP
substance,measurement,value
"BRD4(462-720), C-terminal fragment of human BRD4 that contains the ET domain (from UniProt O60885-2 462-720) (domain or fragment)","concerted integration (DNA strand transfer) activity of Rev-A IN in vitro with 0.05, 0.15, 0.35, 0.5 μM BRD4 (462–720), against the activity without BRD4 protein",5 fold
